Laboratory results published in patent US20210054027.

Tests used:
[1] = system: Rho-KFDFCyclic
[2] = system: KFDFCyclic
[3] = system: KLDLCyclic
[4] = system: Rho-KLDLCyclic
Chain of Rho-KLDLCyclic (chain, as listed by the source): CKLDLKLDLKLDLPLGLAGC

Chain of MMP-9 (recombinant human catalytic domain) (chain, as listed by the source): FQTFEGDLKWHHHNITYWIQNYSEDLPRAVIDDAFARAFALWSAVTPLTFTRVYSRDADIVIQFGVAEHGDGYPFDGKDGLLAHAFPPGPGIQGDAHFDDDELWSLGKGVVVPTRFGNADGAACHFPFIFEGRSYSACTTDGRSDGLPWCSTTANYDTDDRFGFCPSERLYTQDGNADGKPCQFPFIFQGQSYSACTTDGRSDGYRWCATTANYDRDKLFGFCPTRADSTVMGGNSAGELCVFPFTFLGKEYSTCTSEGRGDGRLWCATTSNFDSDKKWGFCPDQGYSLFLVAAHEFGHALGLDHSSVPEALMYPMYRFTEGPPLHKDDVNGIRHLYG
Chain of Rho-KFDFCyclic (chain, as listed by the source): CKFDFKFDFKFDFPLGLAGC

Substance	enzymatic cleavage of progelator (visible aggregation, TEM fibers) [1]	enzymatic cleavage of progelator (LCMS, 5 hr) [2]	enzymatic cleavage of progelator (data not shown) [3]	enzymatic cleavage of progelator (visible aggregation, TEM fibers) [4]	enzymatic cleavage of progelator (TEM fibers, CD) [1]	enzymatic cleavage of progelator (TEM fibers, CD) [4]
MMP-9 (recombinant human catalytic domain)	Enzymatic cleavage by active MMP-9 and elastase (FIGS. 20a-20d) induced visible aggregation in the reaction vial and entangled fibrous meshes by TEM, whereas denatured enzymes elicited no response	KFDFCyclic and KLDLCyclic (data not shown) were treated with MI-associated enzymes, MMP-9 and elastase to confirm enzyme responsiveness	KFDFCyclic and KLDLCyclic (data not shown) were treated with MI-associated enzymes, MMP-9 and elastase to confirm enzyme responsiveness	Enzymatic cleavage by active MMP-9 and elastase (FIGS. 20a-20d) induced visible aggregation in the reaction vial and entangled fibrous meshes by TEM, whereas denatured enzymes elicited no response		
Thermolysin					Despite the promiscuous activity of thermolysin, incubation with Rho-KLDLCyclic and Rho-KFDFCyclic induced fiber formation by TEM	Despite the promiscuous activity of thermolysin, incubation with Rho-KLDLCyclic and Rho-KFDFCyclic induced fiber formation by TEM
